Source: publication PMC7102495
Values belong to the substance of their own block, whether it stands above or below them.

Key:
Assay in all cases: FRET or BRET
[1] = biological target: ^NDD_(BaeN)+mTurquoise2 (Bacillus amyloliquefaciens FZB42 | not stated)
[2] = biological target: ^NDD_(DifG)+mTurquoise2 (Bacillus amyloliquefaciens FZB42 | not stated)
[3] = biological target: ^NDD_(MlnC)+mTurquoise2 (Bacillus amyloliquefaciens FZB42 | not stated)

Kd [1]: 7.4 µM
Substance: Venus+^CDD_(BaeM)

Kd [2]: 6.3 µM
Substance: Venus+^CDD_(DifF)

Kd [3]: 2.9 µM
Substance: Venus+^CDD_(MlnB)
